In the RNAGym collection of RNA variant scans (doi:10.1093/nar/gkz1192):

B1: CPEB3 Ribozyme (parent)
chain: UAACAGGGGGCCACAGCAGAAGCGUUCACGUCGCAGCCCCUGUCAGAUUCUGGUGAAUCUGCGAAUUCUGCUGUAUAUCUC

Variants of: B1
Experiment: self-cleavage, relative activity (ratio to wild type); higher = more cleavage; in vitro, sequencing
How it was run: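 Relative activity was defined as the cleaved/total read fraction for a variant divided by the same fraction for the unmutated ribozyme. CPEB3 self-cleaving ribozyme libraries were made by rounds of error-prone PCR, barcoded, and transcribed in vitro with T7 RNA polymerase for 5 hours at 37°C, and cleavage ran through transcription plus a 15 min DNase I step before EDTA. Illumina sequencing of template-switched reverse transcripts gave the reads, and DNA sequencing mapped the barcodes. Averages come from three batches, using variants with at least 5 reads.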

| Variant | self-cleavage |
| --- | --- |
| G9C C79A | 0.58 |
| G9C A57U | 0.24 |
| G8U C32U | 0.14 |
| G8U C59U | 0.1 |
| G9A C17U | 0.23 |
| G9A C17G | 0.1 |
| G8U U74A | 0.41 |
| G8U U74G | 0.17 |
| G8U C39U | 0.08 |
| G9A U66A | 0.11 |
| G9A U66C | 0.24 |
| G8C A57G | 0.52 |
| G9C U43C | 0.13 |
| G8A G19A | 0.06 |
| G9A A13G | 0.3 |
| G9A A13U | 0.28 |
| G8A C79A | 0.18 |
| G8A U80C | 0.19 |
| G8A U80A | 0.29 |
| G8A U76A | 0.49 |
| G8U C37U | 0.17 |
| G8U G24U | 0.13 |
| G8U G24A | 0.16 |
| G8U A56U | 0.14 |

| Variant | self-cleavage |
| --- | --- |
| G9A G33A | 0.08 |
| G8U G55U | 0.2 |
| G8U A47G | 0.13 |
| G8C U78C | 0.07 |
| G9A U31A | 0.16 |
| G9A U31C | 0.29 |
| G9C G52A | 0.55 |
| G9C A77C | 0.18 |
| G9A G61A | 0.06 |
| G9A G53A | 0.35 |
| G8A U54A | 0.08 |
| G8A U54C | 0.14 |
| G8U U66G | 0.13 |
| G8A U67C | 0.22 |
| G8A U67A | 0.26 |
| G8A U67G | 0.48 |
| G8C U54C | 0.44 |
| G8C A13U | 0.16 |
| G9A U78A | 0.44 |
| G9A U78C | 0.25 |
| G8C C38U | 0.07 |
| G8C A18U | 0.23 |
| G8C A18G | 0.27 |
| G8U C11U | 0.1 |

| Variant | self-cleavage |
| --- | --- |
| G8U A21U | 0.17 |
| G8C A65G | 0.38 |
| G8U U67C | 0.23 |
| G8U U67A | 0.19 |
| G8A U51C | 0.21 |
| G8A U51A | 0.24 |
| G8A U51G | 0.09 |
| G8U G73C | 0.5 |
| G9C U51A | 0.09 |
| G9A C38A | 0.25 |
| G9A A45G | 0.39 |
| G9A A45U | 0.21 |
| G9A C27A | 0.04 |
| G8A G55A | 0.06 |
| G9C A45U | 0.13 |
| G9C A45C | 0.25 |
| G9C A75G | 0.17 |
| G8C U26C | 0.08 |
| G9A A57U | 0.15 |
| G9A A57G | 0.22 |
| G9C C44U | 0.18 |
| G9A G22C | 0.32 |
| G9C A28G | 0.07 |
| G8U C71G | 0.07 |

| Variant | self-cleavage |
| --- | --- |
| G8C U76C | 0.4 |
| G9A A20G | 0.37 |
| G9A A20C | 0.39 |
| G9A A20U | 0.43 |
| G9C A20G | 0.06 |
| G9C | 0.24 |
| G9A | 0.29 |
| G9C G30C | 0.06 |
| G9C G30U | 0.22 |
| G9C G30A | 0.1 |
| G8A G24A | 0.08 |
| G8U U49A | 0.28 |
| G8U U49C | 0.22 |
| G8A U58C | 0.2 |
| G9A G55C | 0.24 |
| G8U A13G | 0.28 |
| G8U A13U | 0.3 |
| G8A U26A | 0.19 |
| G8A U26C | 0.13 |
| G8U U76A | 0.28 |
| G8U U76C | 0.13 |
| G9C U31C | 0.22 |
| G9C U31A | 0.19 |
| G9A A56C | 0.24 |

| Variant | self-cleavage |
| --- | --- |
| G9A A56G | 0.18 |
| G9A A56U | 0.23 |
| G8A U66C | 0.12 |
| G9C A47G | 0.21 |
| G9A A35G | 0.66 |
| G9A A35U | 0.18 |
| G8U G9A | 0.33 |
| G8C U51A | 0.12 |
| G8A C71A | 0.17 |
| G8A C71U | 0.21 |
| G9A C79U | 0.16 |
| G8U U80G | 0.2 |
| G8U U80C | 0.16 |
| G8U U80A | 0.2 |
| G8C U67G | 0.15 |
| G8C U67C | 0.15 |
| G9A U60C | 0.14 |
| G9A U60A | 0.22 |
| G8A C68A | 0.2 |
| G9A U26G | 0.07 |
| G9A U26A | 0.29 |
| G9A U26C | 0.21 |
| G9A A65G | 0.22 |
| G9A A65U | 0.17 |

| Variant | self-cleavage |
| --- | --- |
| G8C A56G | 0.17 |
| G8U U72C | 0.15 |
| G8U U72A | 0.07 |
| G8U C38U | 0.04 |
| G8U A75G | 0.12 |
| G8U A75U | 0.35 |
| G8U U54C | 0.14 |
| G8U U54A | 0.07 |
| G9C C71G | 0.05 |
| G9C A21U | 0.23 |
| G8A G42A | 0.1 |
| G9C U25C | 0.07 |
| G8C C27A | 0.19 |
| G9C A18U | 0.08 |
| G9C A18G | 0.16 |
| G9C U60C | 0.25 |
| G9C U60A | 0.15 |
| G8U C40U | 0.11 |
| G9A U43A | 0.39 |
| G9A U43G | 0.22 |
| G9A U43C | 0.29 |
| G8U U48C | 0.38 |
| G8U A64G | 0.2 |
| G8U A64U | 0.08 |

| Variant | self-cleavage |
| --- | --- |
| G8U A64C | 0.12 |
| G8U A45G | 0.14 |
| G8U G53A | 0.2 |
| G8U G53U | 0.12 |
| G9A G52C | 0.13 |
| G9A G52A | 0.24 |
| G8U C12U | 0.3 |
| G8U G52A | 0.21 |
| G8U G52U | 0.21 |
| G9A C37U | 0.15 |
| G8C U66C | 0.41 |
| G9A G10C | 0.2 |
| G9A G10A | 0.45 |
| G9A A28G | 0.24 |
| G9A A28U | 0.22 |
| G9A A28C | 0.2 |
| G8U U26C | 0.14 |
| G8U U26A | 0.07 |
| G9C A35G | 0.27 |
| G9A A64C | 0.06 |
| G9A A64U | 0.39 |
| G9A A64G | 0.3 |
| G8U U78A | 0.21 |
